# B1: IL-12: IL-12 recombinant protein injected at the tumor site (protein, listed as Homo sapiens)
# chain 1: MCHQQLVISWFSLVFLASPLVAIWELKKDVYVVELDWYPDAPGEMVVLTCDTPEEDGITWTLDQSSEVLGSGKTLTIQVKEFGDAGQYTCHKGGEVLSHSLLLLHKKEDGIWSTDILKDQKEPKNKTFLRCEAKNYSGRFTCWWLTTISTDLTFSVKSSRGSSDPQGVTCGAATLSAERVRGDNKEYEYSVECQEDSACPAAEESLPIEVMVDAVHKLKYENYTSSFFIRDIIKPDPPKNLQLKPLKNSRQVEVSWEYPDTWSTPHSYFSLTFCVQVQGKSKREKKDRVFTDKTSATVICRKNASISVRAQDRYYSSSWSEWASVPCS
# chain 2: MWPPGSASQPPPSPAAATGLHPAARPVSLQCRLSMCPARSLLLVATLVLLDHLSLARNLPVATPDPGMFPCLHHSQNLLRAVSNMLQKARQTLEFYPCTSEEIDHEDITKDKTSTVEACLPLELTKNESCLNSRETSFITNGSCLASRKTSFMMALCLSSIYEDLKMYQVEFKTMNAKLLMDPKRQIFLDQNMLAVIDELMQALNFNSETVPQKSSLEEPDFYKTKIKLCILLHAFRIRAVTIDRVMSYLNAS
# System: melanoma
# Assay: Treatment of patients with melanoma
# Assay type: in vivo
# Description: 100 patients are diagnosed with melanoma and subject to IL-12 recombinant protein injection at the tumor site. Patients receive either vehicle injections, 250 ng/kg/day of IL-12 or 500 ng/kg/day of IL-12 per treatment every three days for a week. […] By 5 years post-surgery, 40% of the patients who undergo IL-12 therapy have a relapse of […], and have 60% survival rate.
# 100 patients are diagnosed with melanoma and are administered genetically modified stem cells expressing IL-12 by intracavitary infusion. Tumor size is monitored by PET scan, and at the end of six months, the tumor size is reduced.
molecule,measurement,setting,value
B1,"tumor size by PET scan, higher dose",500 ng/kg/day versus 250 ng/kg/day or vehicle,greater reduction in tumor size than the lower dose or vehicle injected patients
same,tumor size by PET scan,"IL-12 recombinant protein injection at the tumor site, 250 or 500 ng/kg/day every three days for a week, versus vehicle",reduced tumor size
same,patients with relapse,by 5 years,40%
same,survival rate,by 5 years,60%
same,T cell activation and immune cell infiltration in biopsies of injected lesions,versus vehicle injections,more T cell activation and immune cell infiltration
